Test: soluble on expression in E. coli; label from the status in PepcDB or PDB records

Row | Sequence | soluble on expression in E. coli
1 | MGSDKIHHHHHHMLTASSITLQFASKPLFENVNVKFGDGNRYGLIGANGSGKSTFMKILAGELEPTAGNVSLDPGERMAWLRQDQFGYEDQRVLDVVMQGHVEMWRVMQEKDAIYMNPEASEEDYLRAAELEGKFGELGGYDAEARAGELLLGVGIPTEQHQGTMSQIAPGFKLRVLLAQALFSKPDILLLDEPTNNLDINTIRWLEQVLNESNATIVVISHDRHFLNQVCTHMADLDYGTIKVWPGNYDDYMLASSEAKARQAAANARAKDKVAELQEFVRRFSANKSKARQATSRMKMIDKIKIEDFKPSSRQNPYIRFEPEKALHRRALEVENLKFGYDAEPLFTNLGFSLEAGEKLAVIGGNGVGKSTLMKLLMGELTPAYGEIRWSENANVGYFSQDHVADFDMDLNLTDWMHQWTQAGDDEQVLRGILGRLLFSGDDVKKSVRVLSGGEKGRMLYGKLMLGRHNVLVMDEPTNHMDMESIESLNLALELFKGTLIFVSHDRQFVSSLATRILEITPQGVEFYMGNYDEYLHSKGLE | not soluble
2 | MSLVLQMKSGGVVSDARTELDTQRLAKYIGGKHALVAQGGGQRGIFTAGVLDAFLLSNFDPYHEFYGTSAGALNLCAFLSRQTGLSKAFILELTTRAEFFHLFSYIRRKQYMNMQWALDRIGEYPYRLDLDMARQALGKRKAYAAVTSADDLKDAYFPMLGADWQQVLLATCAIPGLYPEPVTLAGKQYIDGGVSASIPVQEAWRKEARFITVIRTEFMSKEEETPSPSATELPLWLREPLNHLQHQLQHKWSGWRQEWNEFLQQQKLRAKEQKKEQKHLDALNGGRWLFGADDIYRLSHLLGSKFDAGLADLLMVHYQTYTLTSEFLDAHHDDTFIAQIMPSEPLHSNSLLSSPEALQYDYELGLKAGYRFLKAYSEAETFRKEGHHHHHH | soluble
3 | MGSDKIHHHHHHMTAATQAKHTPDDLSVAPRDIRFDLTSAQKGHWLGGDPVGTAVFNALSLTFPDGERMFMDAVKAYRDRLSGKLLEDAKGFIAQEAIHSREHHHLNSLIDRERYPVAEIEETIRGRVKMARERGPMAMLISTIALEHFTAMMAEMHARHRNLFDTTDPEIEKLWRWHAVEETEHKAVAYDVFLEVTKDWSPLKRYMIRCRAMVFVTIMFTRNISRYAARLLEADGYTPKAALKAVKRFVWGDPGIFRRGWKTYFAWYRPGFHPWDQDDRPLVADWMAEFNAAAVRV | not soluble
4 | MNQLKGIHHVTAITSSAEKNYEFFTHVLGMRLVKKTVNQDDIQTYHLFFADDKGSAGTDMTFFDFPGVPKGVHGTNEISKTSFRVPTDAALAYWVKRFDRLEVEHTGIKEQFGKKTLSFVDFDDQHYQLISDELDKGIESGTPWQNGPVPLEYAITGLGPVFIRIANFSFFKEVLEKVLLFKEIAQEGEFYLFEVNKGGNGASVIVEHNTVLPEAQQGFGTVHHAAFRVEDRAVLEEWIERISSVGLPSSGYVNRHFFESLYARVAPQILFEFATDGPGFMGDESYETLGEKLSLPPFLEPKREEIEKLVRPIDTVRSTKEFIKE | not soluble
5 | MGSDKIHHHHHHLITVTDLSLQIGSRTLYSDVNLKFTPGNCYGIIGANGAGKSTFLKLLEGKMEPTTGSISMGPNERMSSLNQDHFAFEDFSVMETVIQGHQKLYQVMKERDALYAKADFSEEDGVKAAELETEFAELDGWNAEADAAQLLQSMSIPEDMHQKQMSELAESDKVKVLLAQALFGNPDTLLLDEPTNGLDVHTTAWLENFLADYENIVLVVSHDRHFLNQVCTQMCDVDRGQIKLYVGNYDFWYESSKLATELARQQNAKKEEQIKQLQEFIARFSANASKSKQATSRKKQLDKISLDDIKPSSRKYPYIKFEMNRDLGNDLLRVDNVSYKSGDEQLLDNVSFIIRPGDKVAFLSRNTRATTALMEIIAGRLEPDSGTVTWGQTTSFNYMSRDLNANFDNDELTILDWLRQYADKEHDDNTFLRGFLGRMLFSGDEINKQIKVLSGGEKVRCQLSRMMLEAANVLVMDDPTNHLDLESITALNEAMENYPGSILFTSHDHEFIQTIANHIIEVGPKGVVARADISYDDFLAHPTVQEQVAKIY | not soluble
6 | MFSEELIKENENIWRRFLPHKFLIEMAENTIKKENFEKWLVNDYYFVKNALRFMALLMAKAPDDLLPFFAESIYYISKELEMFEKKAQELGISLNGEIDWRAKSYVNYLLSVASLGSFLEGFTALYCEEKAYYEAWKWVRENLKERSPYQEFINHWSSQEFGEYVKRIEKILNSLAEKHGEFEKERAREVFKEVSKFELIFWDIAYGGEGNVLEHHHHHH | soluble
7 | MKKYTCTVCGYIYNPEDGDPDNGVNPGTDFKDIPDDWVCPLCGGGKDQFEEVEE | soluble
8 | MITFTANIDGSQANAGTGTGSLGMGVANILFDDLSNEFSWDISWSGLTGNVTAAHFHGPALLNQNAGVQVAISTLSNPTSGSDTINTAQAADLLAGLWYINIHTDTSPSGEIRGQVQVASVPEPGTLSLLLLSMIGVFYSRSKILLEHHHHHH | not soluble
9 | MVVNVFISAVTTDTLSRKEAVAWVNNLLKSHFTKVEEMASGAAYCQLTHLLFNAINLKKVKFNPRSEPDVLNNWKVLTTTWKDLGIDKPVDVEKMKKAKFQDNMEFLQWFYKFYNANLTTEPEEYDAVGARFGEDLPALKGSTGSRPVAAPARPVAAAPPKPRPAAPAVAAPAVKASVPPTVRNGTRPAPATSAGTRRADPSASEELLKQEIEKHKAASDEWETTAKEMETEREYYYSILQRVESLANEAEESGSSTVDVAALKTILYAGNEDTEQVDEIENEHLVESLQANLDDTETF | soluble
10 | MLSFTSRLKKDLFIKAQSLVPQHQLSRVVGKVAESENILIKAAVIQAFKTKYGIDLSIAEQADALKYKSFNEFFTRALKEGVRVVDSATGSIVSPADGAISQLGTIHDGEVFQAKGQSFSVEKLIGDPQLAQPFKQGQFATVYLSPRDYHRVHMPFTGTLTETLYIPGELFSVNQVTAENIPGLFARNERMVCLFDTELGRMAVVLVGAMIVAGIETVVTGKVKPTGRLELNHHDVTLQKGDELGRFYLGSTAIILFEKDKMVWDQQFKANSIVVMGEKLGQSTNPLEHHHHHH | not soluble
11 | MCIAAWVWQAHPQHQLLLLLNRDEFHSRPTKAVGWWGEGSKKILGGRDVLGGGTWMGCTKDGRLAFLTNVLEPDAMPGARTRGDLPLRFLQSNKSPLEVATEVAKEADEYNGFNLVLADLTTNVMVYVSNRPKGQPATIQLVSPGLHVLSNARLDSPWQKAIRLGKNFREHLRKHGDDEVEAKDIVERLMTDTTKADKDRLPNTGCDPNWEHGLSSIFIEVQTDQGLYGTRSTAVLSVNYDGEASLYEKYLESGIWKDHTVHYQIE | soluble
12 | MIMQEIFLCSISNVRSGDCKEDCAYCTQSSHHQGAIKRYKFKDEKVVLQEARALRQLGALGFCLVTSGRELDDEKCEYIAKLAKAINQEELGLHLIACCGRADLEQLEFLRDAGIHSYNHNLETSQNFFPKICSTHTWEERFITCENALRAGLGLCSGGIFGLNESWEDRIEMLRALASLSPHTTPINFFIKNPVLPIDAETLSADEALECVLLAKEFLPNARLMVAGGREVVFKDNDKKEAKLFEYGINAVVLGDYLTTKGKAPKKDIEKLLSYGLTMATSCHLEHHHHHH | not soluble
13 | MSLSIISQIEACDFERLYEIEQQAHLVPWSFGTLKNNQGERYLNLKLIENNQIIGFAICQTVLDEATLFNIAILPTYQGCGFGKLLLGKLIFQLKEKGVQTLWLEVRESNSARFLYEKIGFNEVDIRKNYYPKPSGGRENAVVMACYLEGHHHHHH | not soluble
14 | MANVLVINFPGEGHINPTLAIISELIRRGETVVSYCIEDYRKKIEATGAEFREFENFLSQINIMERVNEGGSPLTMLSHMIEASERIVTQIVEETKGEQYDYLLYDNHFPVGRIIANVLQLPSISSCTTFAFNQYITFNDEQESRQVDETNPLYQSCLAGMEKWNRQYGMKCNSMYDIMNHPGDITIVYTSKEYQPRSDVFDESYKFVGPSIATRKEVGSFPMEDLKGEKLIFISMGTVFNEQPELYEKCFEAFKGVEATVILAVGKKINISQFENIPNNFKLYNYVPQLEVLQHADVFVTHGGMNSSSEALYYGVPLVVIPVTGDQPLVAKRVNEVGAGIRLNRKELTSELLRETVKEVMYDVTFKENSRKVGESLRNAGGYKRAVDEIFKMKMNSYLKLK | not soluble
15 | SRLITHNMLSCNIKGVTSGFPLRIEAGNVIEKEVDFNPDFIRHMFAKIEWKALVEGARSMGYAELPEESPDAAVLKSDEPFLKKLHHALLELHLEEGALVCPETGRKFPVNKGIPNMLLHEDEV | soluble

Source: the DeepSol protein solubility set
